Results on 6 molecules are retold here after patent publication US20200317768A1 (published 2020).

Where a chain is given by its changes, count along the chain named.

The target of assay [1] is T1, human FcγRIIaR extracellular domain, His-tagged (human, UniProt P12318 34-217).
T1 construct: also called human FcγRIIa (type R); FcgRIIaR
T1 chain: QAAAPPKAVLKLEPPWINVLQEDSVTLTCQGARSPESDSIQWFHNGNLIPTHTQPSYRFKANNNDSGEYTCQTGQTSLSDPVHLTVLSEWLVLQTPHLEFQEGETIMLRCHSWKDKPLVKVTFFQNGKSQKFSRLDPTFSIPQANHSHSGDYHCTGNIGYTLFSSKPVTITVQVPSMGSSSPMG
Kind of assay: SPR, antibody captured, FcgR analyte. As for the experimental part: (§1) The kinetic analysis of interactions between these antibodies and FcγR was carried out using BIACORE® T200 or BIACORE® 4000 (GE Healthcare). HBS-EP+ (GE Healthcare) was used as the running buffer, and the measurement temperature was set to 25° C. A chip produced by immobilizing Protein A. Protein A/G or mouse anti-human IgG kappa light chain (BD Biosciences) onto a Series S Sensor Chip CM4 or CM5 (GE Healthcare) by the amine-coupling method was used. […] After the measurement, the antibody captured on the chip was washed off by allowing reaction with 10 mM glycine-HCl, pH1.5 and 25 mM NaOH so that the chip was regenerated and used repeatedly. The sensorgrams obtained as measurement results were analyzed by the 1:1 Langmuir binding model using the BIACORE® Evaluation Software to calculate the binding rate constant ka (L/mol/s) and dissociation rate constant kd (l/s), and the dissociation constant KD (mol/L) was calculated from these values. […] Regarding such interactions, KD values were calculated using the following 1:1 binding model described in BIACORE® T100 Software Handbook BR1006-48 Edition AE.
(§2) The behavior of interacting molecules according to the 1:1 binding model on BIACORE® can be described by Equation 1: Req=C·R max/(KD+C)+RI, wherein, Req is a plot of steady-state binding levels to analyte concentration. C is concentration, RI is bulk refractive index contribution in the sample, and Rmax is analyte binding capacity of the surface. When this equation is rearranged, KD can be expressed as Equation 2: KD=C·Rmax/(Req−RI)−C. KD can be calculated by substituting the values of Rmax, RI, and C into Equation 1 or Equation 2. From the current measurement conditions, RI=0, C=2 μmol/L can be used.
A general note: Surface plasmon resonance follows binding to a sensor surface in real time, without labels.

For assay [2], the target named is T2, human FcγRIIIaV extracellular domain, His-tagged (human, UniProt P08637 17-208).
T2 construct: also called FcgRIIIaV
Nature of the assay: SPR, antibody captured, FcgR analyte. As for the experimental part:
as §1, §2

In assay [3] the target is T3, cynomolgus monkey FcγRIIIaS extracellular domain, His-tagged (cynomolgus monkey, UniProt Q8SPW2 21-206 at identity 1.00)).
T3 construct: also called cyno FcγRIIIaS; cynoFcγRIIIaS
T3 chain: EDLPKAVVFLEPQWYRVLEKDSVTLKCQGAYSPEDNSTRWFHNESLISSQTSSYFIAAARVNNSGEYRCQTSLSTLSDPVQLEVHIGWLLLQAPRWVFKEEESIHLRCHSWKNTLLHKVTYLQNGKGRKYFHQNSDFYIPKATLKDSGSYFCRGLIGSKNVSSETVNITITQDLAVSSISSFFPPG
Nature of the assay: SPR, antibody captured, FcgR analyte. Here is the method:
as §1, §2

Assay [4] addresses T4, human FcγRIIb extracellular domain, His-tagged (human, UniProt P31994 43-217).
T4 construct: also called FcgRIIb (human)
T4 sequence: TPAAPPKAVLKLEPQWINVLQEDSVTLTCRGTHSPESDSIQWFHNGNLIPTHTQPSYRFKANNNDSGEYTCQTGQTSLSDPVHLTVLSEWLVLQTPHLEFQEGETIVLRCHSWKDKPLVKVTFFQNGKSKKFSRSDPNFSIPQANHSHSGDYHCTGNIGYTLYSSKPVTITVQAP
Kind of assay: SPR, antibody captured, FcgR analyte. Here is the method: as §1, §2

Assay [5] concerns the target T5, cynomolgus monkey FcγRIIa3 extracellular domain, His-tagged (cynomolgus monkey).
T5 construct: also called cyno FcγRIIa3; cynoFcgRIIa3
T5 chain: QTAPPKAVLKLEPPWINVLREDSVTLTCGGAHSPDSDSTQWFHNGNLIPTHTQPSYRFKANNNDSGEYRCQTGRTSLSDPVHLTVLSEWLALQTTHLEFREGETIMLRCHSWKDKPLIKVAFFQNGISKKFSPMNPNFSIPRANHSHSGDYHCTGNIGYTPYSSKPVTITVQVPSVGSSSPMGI
Kind of assay: SPR, antibody captured, FcgR analyte. Here is the method: as §1, §2

The target in assay [6] is T6, human FcγRIIaH extracellular domain, His-tagged (human, UniProt P12318 34-217).
T6 construct: also called human FcγRIIa (type H); FcgRIIaH
T6 sequence: T1 chain with R134H
Kind of assay: SPR, antibody captured, FcgR analyte. Here is the method:
as §1, §2

Assay [7] addresses T7, cynomolgus monkey FcγRIIa2 extracellular domain, His-tagged (cynomolgus monkey).
T7 construct: also called cyno FcγRIIa2; cynoFcgRIIa2
T7 chain: T5 chain with I127K, K130N, P133H, R142Q
Kind of assay: SPR, antibody captured, FcgR analyte. Here is the method: as §1, §2

Assay [8] has as its target T8, cynomolgus monkey FcγRIIa1 extracellular domain, His-tagged (cynomolgus monkey).
T8 construct: also called cyno FcγRIIa1; cynoFcgRIIa1
T8 chain: T5 chain with T95P, A121T, S128A, P133H, N135D
Kind of assay: SPR, antibody captured, FcgR analyte. Here is the method: as §1, §2

Assay [9] has as its target T9, cynomolgus monkey FcγRIIIaS extracellular domain, C-terminal His-tag (cynomolgus monkey, UniProt A3RFZ7 21-206 (rhesus entry)).
T9 construct: also called cyno FcγRIIIaS; cynoFcγRIIIaS; not shown: His-tag added to C-terminus
Nature of the assay: SPR (Biacore), antibody captured, FcgR analyte, 25 C. Here is the method: as §1, §2

The target of assay [10] is T10, human FcγRIIIaV extracellular domain, C-terminal His-tag (human, UniProt P08637 17-208).
T10 construct: also called FcgRIIIaV; not shown: His-tag added to C-terminus
Described as above. Here is the method:
as §1, §2

Assay [11] deals with T11, cynomolgus monkey FcγRIIa1 extracellular domain, C-terminal His-tag (cynomolgus monkey).
T11 construct: also called cyno FcγRIIa1; cynoFcgRIIa1; not shown: His-tag added to C-terminus
T11 chain: T5 chain with T95P, A121T, S128A, P133H, N135D
The assay is described as above. As for the experimental part:
as §1, §2

Assay [12] addresses T12, human FcγRIIb extracellular domain, C-terminal His-tag (human, UniProt P31994 43-217).
T12 construct: also called FcgRIIb (human); not shown: His-tag added to C-terminus
T12 sequence: T4 sequence
The assay is described as above. Here is the method: as §1, §2

Assay [13] has as its target T13, cynomolgus monkey FcγRIIa3 extracellular domain, C-terminal His-tag (cynomolgus monkey).
T13 construct: also called cyno FcγRIIa3; cynoFcgRIIa3; not shown: His-tag added to C-terminus
T13 chain: T5 chain
The assay is described as above. Here is the method: as §1, §2

Assay [14] concerns the target T14, cynomolgus monkey FcγRIIa2 extracellular domain, C-terminal His-tag (cynomolgus monkey).
T14 construct: also called cyno FcγRIIa2; cynoFcgRIIa2; not shown: His-tag added to C-terminus
T14 chain: T5 chain with I127K, K130N, P133H, R142Q
The description is as above. Here is the method:
as §1, §2

Assay [15] addresses T15, human FcγRIIaH extracellular domain, C-terminal His-tag (human, UniProt P12318 34-217).
T15 construct: also called human FcγRIIa (type H); FcgRIIaH; not shown: His-tag added to C-terminus
T15 sequence: T1 chain with R134H
The description is as above. Here is the method: as §1, §2

Assay [16] concerns the target T16, cynomolgus monkey FcγRIIb extracellular domain, C-terminal His-tag (cynomolgus monkey).
T16 construct: also called cyno FcγRIIb; cynoFcγRIIb; not shown: His-tag added to C-terminus
T16 chain: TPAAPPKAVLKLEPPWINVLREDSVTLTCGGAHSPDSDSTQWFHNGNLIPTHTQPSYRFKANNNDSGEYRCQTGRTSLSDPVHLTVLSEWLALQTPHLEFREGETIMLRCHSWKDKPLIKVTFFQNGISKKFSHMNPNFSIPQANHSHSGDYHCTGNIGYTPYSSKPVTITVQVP
The assay is described as above. Here is the method:
as §1, §2

The target of assay [17] is T17, human FcγRIIaR extracellular domain, C-terminal His-tag (human, UniProt P12318 34-217).
T17 construct: also called human FcγRIIa (type R); FcgRIIaR; not shown: His-tag added to C-terminus
T17 chain: T1 chain
Described as above. Here is the method: as §1, §2

Assay [18] has as its target T18, cynomolgus monkey FcγRIIb extracellular domain, His-tagged (cynomolgus monkey).
T18 construct: also called cyno FcγRIIb; cynoFcγRIIb
T18 chain: T16 chain
Nature of the assay: SPR, antibody captured, FcgR analyte. Here is the method:
as §1, §2

By Kd is commonly meant a measure of binding affinity in units of concentration.

T10 sequence (P08637 17-208 F176V): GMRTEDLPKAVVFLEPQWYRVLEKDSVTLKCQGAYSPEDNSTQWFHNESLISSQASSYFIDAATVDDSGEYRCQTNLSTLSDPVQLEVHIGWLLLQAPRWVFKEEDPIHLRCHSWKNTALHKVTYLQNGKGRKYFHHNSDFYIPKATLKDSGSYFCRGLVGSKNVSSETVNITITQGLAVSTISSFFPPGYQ
T2 sequence (P08637 17-208 F176V): as above

B1: M103205H795-MY015/M103202L889-SK1 (antibody, human IgG1, kappa)
heavy: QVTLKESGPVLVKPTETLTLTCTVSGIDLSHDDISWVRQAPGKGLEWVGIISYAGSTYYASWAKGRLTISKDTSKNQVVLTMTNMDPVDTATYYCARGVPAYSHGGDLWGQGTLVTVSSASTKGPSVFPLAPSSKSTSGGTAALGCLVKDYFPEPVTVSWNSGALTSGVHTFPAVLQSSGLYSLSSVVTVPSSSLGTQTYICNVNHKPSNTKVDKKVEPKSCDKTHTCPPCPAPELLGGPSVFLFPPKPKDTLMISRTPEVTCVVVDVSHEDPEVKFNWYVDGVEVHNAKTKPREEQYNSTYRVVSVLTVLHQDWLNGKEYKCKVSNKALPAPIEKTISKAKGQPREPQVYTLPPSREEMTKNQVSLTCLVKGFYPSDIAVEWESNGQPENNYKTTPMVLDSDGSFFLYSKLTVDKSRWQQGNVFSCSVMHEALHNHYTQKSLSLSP
light: DIVMTQSPATLSLSPGERATLSCTSSQSVYHANWLSWFQQKPGQPPKLLIYWASTLAYGVPSRFSGSGSGTDFTLTISSLQPEDAATYYCAGGYGGGRYAFGQGTKVEIKRTVAAPSVFIFPPSDEQLKSGTASVVCLLNNFYPREAKVQWKVDNALQSGNSQESVTEQDSKDSTYSLSSTLTLSKADYEKHKVYACEVTHQGLSSPVTKSFNRGEC
notes: Substitution put into M103205H795-SG1
Regarding B1, the Kd in assay [1] worked out at 320 nM; in assay [2], 240 nM; in [3], 100 nM; in assay [4], 1600 nM; in assay [5], 4700 nM; in assay [6] it was 330 nM. In addition, the Kd in assay [7] amounted to 1500 nM; in assay [8], 1300 nM.

B2: M103205H795-MY327/M103202L889-SK1 (antibody, human IgG1, kappa)
heavy: QVTLKESGPVLVKPTETLTLTCTVSGIDLSHDDISWVRQAPGKGLEWVGIISYAGSTYYASWAKGRLTISKDTSKNQVVLTMTNMDPVDTATYYCARGVPAYSHGGDLWGQGTLVTVSSASTKGPSVFPLAPSSKSTSGGTAALGCLVKDYFPEPVTVSWNSGALTSGVHTFPAVLQSSGLYSLSSVVTVPSSSLGTQTYICNVNHKPSNTKVDKKVEPKSCDKTHTCPPCPAPELLDGPSVFLFPPKPKDTLMISRTPEVTCVVVDVSEEDPEVKFNWYVDGVEVHNAKTKPREELYNSTYRVVSVLTVLHQDWLNGKEYKCKVSNKALPKPIEKTISKAKGQPREPQVYTLPPSREEMTKNQVSLTCLVKGFYPSDIAVEWESNGQPENNYKTTPPVLDSDGSFFLYSKLTVDKSRWQQGNVFSCSVMHEALHNHYTQKSLSLSP
light: B1 light
Take B2: the dissociation constant Kd stood at 4300 nM in assay [9]; 9900 nM in assay [10]; 3400 nM in assay [11]; 170 nM in assay [12]; 5300 nM in assay [13]; 4800 nM in assay [14]. The results for the dissociation constant Kd in [15], in [16] and in assay [17] were 350 nM, 1000 nM and 200 nM, respectively.

B3: M103205H795-MY325/M103202L889-SK1 (antibody, human IgG1, kappa)
heavy: B2 heavy with E270D, L297Q
light: B1 light
Take B3: the dissociation constant (Kd) in [9] worked out at 4000 nM; in assay [10], 8100 nM; in assay [11], 4000 nM; in assay [12] it was 260 nM; in assay [13], 5800 nM; in [14], 4400 nM. The Kd in assay [15] was 510 nM; in assay [16], 950 nM; in assay [17], 300 nM.

B4: M103205H795-MY329/M103202L889-SK1 (antibody, human IgG1, kappa)
heavy: B2 heavy with E270D
light: B1 light
On to B4, for which the Kd in assay [9] came out at 2300 nM; in assay [10], 6400 nM; in assay [11], 1900 nM; in assay [12], 160 nM; in assay [13] it was 3700 nM; in [14], 3200 nM. The figures for the dissociation constant (Kd) in [15], in assay [16] and in assay [17] were 270 nM, 590 nM and 210 nM, respectively.

B5: M103205H795-MY066/M103202L889-SK1 (antibody, human IgG1, kappa)
heavy: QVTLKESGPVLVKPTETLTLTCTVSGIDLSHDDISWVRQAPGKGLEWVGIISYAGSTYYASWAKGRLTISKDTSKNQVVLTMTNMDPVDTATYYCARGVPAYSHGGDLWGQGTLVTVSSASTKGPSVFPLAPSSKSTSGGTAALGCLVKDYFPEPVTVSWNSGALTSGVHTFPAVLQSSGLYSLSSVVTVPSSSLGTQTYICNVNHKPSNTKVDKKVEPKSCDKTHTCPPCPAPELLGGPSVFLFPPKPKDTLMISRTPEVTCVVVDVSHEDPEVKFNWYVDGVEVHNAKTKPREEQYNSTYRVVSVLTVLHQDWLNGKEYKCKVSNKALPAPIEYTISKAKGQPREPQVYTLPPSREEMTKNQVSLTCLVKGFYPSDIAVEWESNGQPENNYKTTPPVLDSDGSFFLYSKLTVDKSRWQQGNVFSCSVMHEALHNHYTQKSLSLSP
light: B1 light
notes: as for B1
Regarding B5, the Kd in assay [18] was 1400 nM; in [1], 970 nM; in assay [2], 290 nM; in assay [3] it was 160 nM; in assay [4], 2800 nM; in assay [5] it was 5700 nM. For the same molecule, the results for the Kd in [6], in [7] and in assay [8] were 640 nM, 2800 nM and 2100 nM, respectively.

B6: M103205H795-MY067/M103202L889-SK1 (antibody, human IgG1, kappa)
heavy: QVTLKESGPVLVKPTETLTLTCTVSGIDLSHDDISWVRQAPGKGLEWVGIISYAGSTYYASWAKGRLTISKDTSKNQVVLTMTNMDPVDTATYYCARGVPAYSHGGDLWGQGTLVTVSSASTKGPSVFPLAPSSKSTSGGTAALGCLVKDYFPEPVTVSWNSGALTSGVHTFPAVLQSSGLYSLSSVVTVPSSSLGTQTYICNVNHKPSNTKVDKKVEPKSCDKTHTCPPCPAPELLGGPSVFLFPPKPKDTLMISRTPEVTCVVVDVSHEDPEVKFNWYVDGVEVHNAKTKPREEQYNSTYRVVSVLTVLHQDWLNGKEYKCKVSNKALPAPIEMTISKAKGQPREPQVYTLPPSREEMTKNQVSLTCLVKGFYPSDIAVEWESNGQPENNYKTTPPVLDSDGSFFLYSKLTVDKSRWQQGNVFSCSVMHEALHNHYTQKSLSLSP
light: B1 light
notes: as for B1
With B6, the equilibrium dissociation constant (Kd) amounted to 1100 nM in assay [18]; 760 nM in assay [1]; 200 nM in [2]; 100 nM in assay [3]; 2800 nM in assay [4]; 6700 nM in [5]. The results for the equilibrium dissociation constant (Kd) in assay [6], in assay [7] and in [8] were 530 nM, 2300 nM and 2100 nM, respectively.
